In article PMC6858872 (Nature structural & molecular biology, 2019):
“And” between values parts separate entries of the source, which are not always exact repeats. Equal entries are not always repeated. Where two headings read alike, the source gives them in different places.

Key:
YFP-BiP [1] = target: T1, YFP-BiP (human, UniProt P11021 28-654); experiment: FRET or BRET
YFP-BiP [2] = target: T1, YFP-BiP; experiment: FRET or BRET; remark: listed apart in the source
YFP-BiP [3] = target: T1, YFP-BiP; experiment: FRET or BRET; remark: listed apart in the source
SEC = target: the molecule itself; experiment: SEC

Ki of the high concentration phase (Ki^High) (YFP-BiP [1]) [µM] | Ki of the high concentration phase (Ki^High) (YFP-BiP [2]) [µM] | Ki of the high concentration phase (Ki^High) (YFP-BiP [3]) [µM] | Binder | stoichiometry N (SEC)
4.3 ± 0.4 | 0.2 ± 0.01 | 5.2 ± 0.6 | CH1 (immunoglobulin fragment, inherently misfolded without CL) (domain or fragment) not shown | –
– | – | – | IRE1 LD (human IRE1 luminal domain, 32-440) (domain or fragment) LLFVSTLDGSLHAVSKRTGSIKWTLKEDPVLQVPTHVEEPAFLPDPNDGSLYTLGSKNNEGLTKLPFTIPELVQASPCRSSDGILYMGKKQDIWYVIDLLTGEKQQTLSSAFADSLCPSTSLLYLGRTEYTITMYDTKTRELRWNATYFDYAASLPEDDVDYKMSHFVSNGDGLVVTVDSESGDVLWIQNYASPVVAFYVWQREGLRKVMHINVAVETLRYLTFMSGEVGRITKWKYPFPKETEAKSKLTPTLYVGKYSTSLYASPSMVHEGVAVVPRGSTLPLLEGPQTDGVTIGDKGECVITPSTDVKFDPGLKSKNKLNYLRNYWLLIGHHETPLSASTKMLERFPNNLPKHRENVIPADSEKKSFEEVINLVDQTSENAPTTVSRDVEEKPAHAPARPEAPVDSM | 2 and 4
